{"source": "paper PMC10731240", "key": {"[1]": {"molecular_target": "Leishmania tarentolae PP1-8e, endogenously HA-tagged", "assay": "co-IP (anti-protein A affinity resin, Western blot band quantification)", "conditions": "parent: 1; read off a plot"}, "[2]": {"molecular_target": "LtPP1-8e 109–114A (GGVFG to alanine), Pd-tagged (Leishmania tarentolae)", "assay": "co-IP; L. tarentolae cell extract; Pd-tagged PP1 (overexpressed from pSNSAP1) held on IgG Sepharose beads, 4 h at 4 °C, washed three times in PA-150 buffer; endogenously HA-tagged PNUTS detected by anti-HA Western blot; %IP relative to WT PP1-8e"}, "[3]": {"molecular_target": "LtPP1-8e 109–134Δ (26 amino acid insertion deleted), Pd-tagged (Leishmania tarentolae)", "assay": "co-IP; L. tarentolae cell extract; Pd-tagged PP1 (overexpressed from pSNSAP1) held on IgG Sepharose beads, 4 h at 4 °C, washed three times in PA-150 buffer; endogenously HA-tagged PNUTS detected by anti-HA Western blot; %IP relative to WT PP1-8e"}, "[4]": {"molecular_target": "LtPP1-8e 359 to 362A, Pd-tagged (Leishmania tarentolae)", "assay": "co-IP; L. tarentolae cell extract; Pd-tagged PP1 (overexpressed from pSNSAP1) held on IgG Sepharose beads, 4 h at 4 °C, washed three times in PA-150 buffer; endogenously HA-tagged PNUTS detected by anti-HA Western blot; %IP relative to WT PP1-8e"}, "[5]": {"molecular_target": "LtPP1-8e I360A, Pd-tagged (Leishmania tarentolae)", "assay": "co-IP; L. tarentolae cell extract; Pd-tagged PP1 (overexpressed from pSNSAP1) held on IgG Sepharose beads, 4 h at 4 °C, washed three times in PA-150 buffer; endogenously HA-tagged PNUTS detected by anti-HA Western blot; %IP relative to WT PP1-8e"}, "[6]": {"molecular_target": "LtPP1-8e 354–358A, Pd-tagged (Leishmania tarentolae)", "assay": "co-IP; L. tarentolae cell extract; Pd-tagged PP1 (overexpressed from pSNSAP1) held on IgG Sepharose beads, 4 h at 4 °C, washed three times in PA-150 buffer; endogenously HA-tagged PNUTS detected by anti-HA Western blot; %IP relative to WT PP1-8e"}, "[7]": {"molecular_target": "LtPP1-8e F305A, Pd-tagged (Leishmania tarentolae)", "assay": "co-IP; L. tarentolae cell extract; Pd-tagged PP1 (overexpressed from pSNSAP1) held on IgG Sepharose beads, 4 h at 4 °C, washed three times in PA-150 buffer; endogenously HA-tagged PNUTS detected by anti-HA Western blot; %IP relative to WT PP1-8e"}, "[8]": {"molecular_target": "LtPP1-8e D292A, Pd-tagged (Leishmania tarentolae)", "assay": "co-IP; L. tarentolae cell extract; Pd-tagged PP1 (overexpressed from pSNSAP1) held on IgG Sepharose beads, 4 h at 4 °C, washed three times in PA-150 buffer; endogenously HA-tagged PNUTS detected by anti-HA Western blot; %IP relative to WT PP1-8e"}, "[9]": {"molecular_target": "LtPP1-8e CΔ23 (23 amino acid C-terminal extension deleted), Pd-tagged (Leishmania tarentolae)", "assay": "co-IP; L. tarentolae cell extract; Pd-tagged PP1 (overexpressed from pSNSAP1) held on IgG Sepharose beads, 4 h at 4 °C, washed three times in PA-150 buffer; endogenously HA-tagged PNUTS detected by anti-HA Western blot; %IP relative to WT PP1-8e"}, "[10]": {"molecular_target": "LtPP1-8e D290A, Pd-tagged (Leishmania tarentolae)", "assay": "co-IP; L. tarentolae cell extract; Pd-tagged PP1 (overexpressed from pSNSAP1) held on IgG Sepharose beads, 4 h at 4 °C, washed three times in PA-150 buffer; endogenously HA-tagged PNUTS detected by anti-HA Western blot; %IP relative to WT PP1-8e"}, "[11]": {"molecular_target": "LtPP1-8e I217A, Pd-tagged (Leishmania tarentolae)", "assay": "co-IP; L. tarentolae cell extract; Pd-tagged PP1 (overexpressed from pSNSAP1) held on IgG Sepharose beads, 4 h at 4 °C, washed three times in PA-150 buffer; endogenously HA-tagged PNUTS detected by anti-HA Western blot; %IP relative to WT PP1-8e"}, "[12]": {"molecular_target": "LtPP1-8e with ^260LP^261 mutated to alanine, Pd-tagged (Leishmania tarentolae)", "assay": "co-IP; L. tarentolae cell extract; Pd-tagged PP1 (overexpressed from pSNSAP1) held on IgG Sepharose beads, 4 h at 4 °C, washed three times in PA-150 buffer; endogenously HA-tagged PNUTS detected by anti-HA Western blot; %IP relative to WT PP1-8e"}, "[13]": {"molecular_target": "LtPP1-8e CΔ11 (final 11 amino acids deleted), Pd-tagged (Leishmania tarentolae)", "assay": "co-IP; L. tarentolae cell extract; Pd-tagged PP1 (overexpressed from pSNSAP1) held on IgG Sepharose beads, 4 h at 4 °C, washed three times in PA-150 buffer; endogenously HA-tagged PNUTS detected by anti-HA Western blot; %IP relative to WT PP1-8e"}, "[14]": {"molecular_target": "LtPP1-8e with ^310DHK^312 mutated to alanine, Pd-tagged (Leishmania tarentolae)", "assay": "co-IP; L. tarentolae cell extract; Pd-tagged PP1 (overexpressed from pSNSAP1) held on IgG Sepharose beads, 4 h at 4 °C, washed three times in PA-150 buffer; endogenously HA-tagged PNUTS detected by anti-HA Western blot; %IP relative to WT PP1-8e"}, "[15]": {"molecular_target": "LtPP1-8e 263–265A, Pd-tagged (Leishmania tarentolae)", "assay": "co-IP; L. tarentolae cell extract; Pd-tagged PP1 (overexpressed from pSNSAP1) held on IgG Sepharose beads, 4 h at 4 °C, washed three times in PA-150 buffer; endogenously HA-tagged PNUTS detected by anti-HA Western blot; %IP relative to WT PP1-8e"}, "[16]": {"molecular_target": "Leishmania tarentolae PNUTS, endogenously HA-tagged", "assay": "co-IP (PP1-8e-Pd pull-down, Western blot band quantification)", "conditions": "parent: 1; read off a plot"}, "[17]": {"molecular_target": "Leishmania tarentolae PNUTS, endogenously HA-tagged", "assay": "co-IP (anti-protein A affinity resin, Western blot band quantification)", "conditions": "parent: 1; read off a plot"}, "[18]": {"molecular_target": "LtPNUTS D101A, Pd-tagged (Leishmania tarentolae)", "assay": "co-IP; L. tarentolae cell extract; Pd-tagged PNUTS (overexpressed from pSNSAP1) held on IgG Sepharose beads, 4 h at 4 °C, washed three times in PA-150 buffer; endogenously HA-tagged PP1-8e, JBP3 or Wdr82 detected by anti-HA Western blot; %IP relative to WT PNUTS"}, "[19]": {"molecular_target": "LtPNUTS L111A, Pd-tagged (Leishmania tarentolae)", "assay": "co-IP; L. tarentolae cell extract; Pd-tagged PNUTS (overexpressed from pSNSAP1) held on IgG Sepharose beads, 4 h at 4 °C, washed three times in PA-150 buffer; endogenously HA-tagged PP1-8e, JBP3 or Wdr82 detected by anti-HA Western blot; %IP relative to WT PNUTS"}, "[20]": {"molecular_target": "LtPNUTS R94A, Pd-tagged (Leishmania tarentolae)", "assay": "co-IP; L. tarentolae cell extract; Pd-tagged PNUTS (overexpressed from pSNSAP1) held on IgG Sepharose beads, 4 h at 4 °C, washed three times in PA-150 buffer; endogenously HA-tagged PP1-8e, JBP3 or Wdr82 detected by anti-HA Western blot; %IP relative to WT PNUTS"}, "[21]": {"molecular_target": "LtPNUTS V97A, Pd-tagged (Leishmania tarentolae)", "assay": "co-IP; L. tarentolae cell extract; Pd-tagged PNUTS (overexpressed from pSNSAP1) held on IgG Sepharose beads, 4 h at 4 °C, washed three times in PA-150 buffer; endogenously HA-tagged PP1-8e, JBP3 or Wdr82 detected by anti-HA Western blot; %IP relative to WT PNUTS"}}, "data": [{"substance": "Leishmania tarentolae PNUTS, Pd-tagged (WT, full-length) F118A", "values": [{"measurement": "ratio to parent", "setting": "[1]", "value": 0.22}]}, {"substance": "Leishmania tarentolae PNUTS, Pd-tagged (WT, full-length) H114A; V115A", "values": [{"measurement": "ratio to parent", "setting": "[1]", "value": 0.17}]}, {"substance": "Leishmania tarentolae PNUTS, Pd-tagged (WT, full-length) K95A", "values": [{"measurement": "ratio to parent", "setting": "[1]", "value": 1}]}, {"substance": "Leishmania tarentolae PNUTS, Pd-tagged (WT, full-length) R125A", "values": [{"measurement": "ratio to parent", "setting": "[1]", "value": 0.92}]}, {"substance": "Leishmania tarentolae PNUTS, Pd-tagged (WT, full-length) W99A", "values": [{"measurement": "ratio to parent", "setting": "[1]", "value": 0.08}]}, {"substance": "Leishmania tarentolae PNUTS, endogenously HA-tagged (natural protein)", "values": [{"measurement": "percent reduction of co-IP against WT PP1-8e", "setting": "[2]", "value": 80, "unit": "%"}, {"measurement": "percent reduction of co-IP against WT PP1-8e", "setting": "[3]", "value": 80, "unit": "%"}, {"measurement": "percent reduction of co-IP against WT PP1-8e", "setting": "[4]", "value": 80, "unit": "%"}, {"measurement": "percent reduction of co-IP against WT PP1-8e", "setting": "[5]", "value": 80, "unit": "%"}, {"measurement": "percent reduction of co-IP against WT PP1-8e", "setting": "[6]", "value": 50, "unit": "%"}, {"measurement": "percent reduction of co-IP against WT PP1-8e", "setting": "[7]", "value": 80, "unit": "%"}, {"measurement": "percent reduction of co-IP against WT PP1-8e", "setting": "[8]", "value": 60, "unit": "%"}, {"measurement": "percent loss of co-IP against WT PP1-8e", "setting": "[9]", "value": 80, "unit": "%"}, {"measurement": "percent reduction of co-IP against WT PP1-8e", "setting": "[10]", "value": 50, "unit": "%"}, {"measurement": "percent reduction of co-IP against WT PP1-8e", "setting": "[11]", "value": 50, "unit": "%"}, {"measurement": "percent of co-IP lost against WT PP1-8e", "setting": "[12]", "value": 80, "unit": "%"}, {"measurement": "percent reduction of co-IP against WT PP1-8e", "setting": "[13]", "value": 30, "unit": "%"}, {"measurement": "percent decrease of co-IP against WT PP1-8e", "setting": "[14]", "value": 20, "unit": "%"}, {"measurement": "percent reduction of co-IP against WT PP1-8e", "setting": "[15]", "value": 90, "unit": "%"}]}, {"substance": "Leishmania tarentolae PP1-8e, Pd-tagged (WT) D116A; K118A; K119A; R121A", "values": [{"measurement": "ratio to parent", "setting": "[16]", "value": 0.79}]}, {"substance": "Leishmania tarentolae PP1-8e, Pd-tagged (WT) D265A", "values": [{"measurement": "ratio to parent", "setting": "[16]", "value": 0.51}]}, {"substance": "Leishmania tarentolae PP1-8e, Pd-tagged (WT) F307A", "values": [{"measurement": "ratio to parent", "setting": "[17]", "value": 0}]}, {"substance": "Leishmania tarentolae PP1-8e, Pd-tagged (WT) I346A", "values": [{"measurement": "ratio to parent", "setting": "[17]", "value": 0.025}]}, {"substance": "Leishmania tarentolae PP1-8e, Pd-tagged (WT) R314A", "values": [{"measurement": "ratio to parent", "setting": "[17]", "value": 0.01}]}, {"substance": "Leishmania tarentolae PP1-8e, Pd-tagged (WT) S126A; D129A; D130A; Y133A; S134A", "values": [{"measurement": "ratio to parent", "setting": "[16]", "value": 0.84}]}, {"substance": "Leishmania tarentolae PP1-8e, Pd-tagged (WT) T348A", "values": [{"measurement": "ratio to parent", "setting": "[17]", "value": 0.82}]}, {"substance": "Leishmania tarentolae PP1-8e, Pd-tagged (WT) Y96A", "values": [{"measurement": "ratio to parent", "setting": "[17]", "value": 0.68}]}, {"substance": "Leishmania tarentolae PP1-8e, endogenously HA-tagged (enzyme)", "values": [{"measurement": "percent reduction of co-IP against WT PNUTS", "setting": "[18]", "value": 80, "unit": "%"}, {"measurement": "percent reduction of co-IP against WT PNUTS", "setting": "[19]", "value": 80, "unit": "%"}, {"measurement": "percent reduction of co-IP against WT PNUTS", "setting": "[20]", "value": 50, "unit": "%"}, {"measurement": "fold decrease of co-IP against WT PNUTS", "setting": "[21]", "value": 5, "unit": "fold"}]}]}
